B1: ATP-sensitive inward rectifier potassium channel 11 (Homo sapiens), Q14654 (parent)
chain: MLSRKGIIPEEYVLTRLAEDPAKPRYRARQRRARFVSKKGNCNVAHKNIREQGRFLQDVFTTLVDLKWPHTLLIFTMSFLCSWLLFAMAWWLIAFAHGDLAPSEGTAEPCVTSIHSFSSAFLFSIEVQVTIGFGGRMVTEECPLAILILIVQNIVGLMINAIMLGCIFMKTAQAHRRAETLIFSKHAVIALRHGRLCFMLRVGDLRKSMIISATIHMQVVRKTTSPEGEVVPLHQVDIPMENGVGGNSIFLVAPLIIYHVIDANSPLYDLAPSDLHHHQDLEIIVILEGVVETTGITTQARTSYLADEILWGQRFVPIVAEEDGRYSVDYSKFGNTVKVPTPLCTARQLDEDHSLLEALTLASARGPLRKRSVPMAKAKPKFSISPDSLS

In the first assay the parent is B1. The settings on record: with ank2_human ANK2, Q01484.
Sequence of ank2_human ANK2, Q01484 (Q01484 whole entry): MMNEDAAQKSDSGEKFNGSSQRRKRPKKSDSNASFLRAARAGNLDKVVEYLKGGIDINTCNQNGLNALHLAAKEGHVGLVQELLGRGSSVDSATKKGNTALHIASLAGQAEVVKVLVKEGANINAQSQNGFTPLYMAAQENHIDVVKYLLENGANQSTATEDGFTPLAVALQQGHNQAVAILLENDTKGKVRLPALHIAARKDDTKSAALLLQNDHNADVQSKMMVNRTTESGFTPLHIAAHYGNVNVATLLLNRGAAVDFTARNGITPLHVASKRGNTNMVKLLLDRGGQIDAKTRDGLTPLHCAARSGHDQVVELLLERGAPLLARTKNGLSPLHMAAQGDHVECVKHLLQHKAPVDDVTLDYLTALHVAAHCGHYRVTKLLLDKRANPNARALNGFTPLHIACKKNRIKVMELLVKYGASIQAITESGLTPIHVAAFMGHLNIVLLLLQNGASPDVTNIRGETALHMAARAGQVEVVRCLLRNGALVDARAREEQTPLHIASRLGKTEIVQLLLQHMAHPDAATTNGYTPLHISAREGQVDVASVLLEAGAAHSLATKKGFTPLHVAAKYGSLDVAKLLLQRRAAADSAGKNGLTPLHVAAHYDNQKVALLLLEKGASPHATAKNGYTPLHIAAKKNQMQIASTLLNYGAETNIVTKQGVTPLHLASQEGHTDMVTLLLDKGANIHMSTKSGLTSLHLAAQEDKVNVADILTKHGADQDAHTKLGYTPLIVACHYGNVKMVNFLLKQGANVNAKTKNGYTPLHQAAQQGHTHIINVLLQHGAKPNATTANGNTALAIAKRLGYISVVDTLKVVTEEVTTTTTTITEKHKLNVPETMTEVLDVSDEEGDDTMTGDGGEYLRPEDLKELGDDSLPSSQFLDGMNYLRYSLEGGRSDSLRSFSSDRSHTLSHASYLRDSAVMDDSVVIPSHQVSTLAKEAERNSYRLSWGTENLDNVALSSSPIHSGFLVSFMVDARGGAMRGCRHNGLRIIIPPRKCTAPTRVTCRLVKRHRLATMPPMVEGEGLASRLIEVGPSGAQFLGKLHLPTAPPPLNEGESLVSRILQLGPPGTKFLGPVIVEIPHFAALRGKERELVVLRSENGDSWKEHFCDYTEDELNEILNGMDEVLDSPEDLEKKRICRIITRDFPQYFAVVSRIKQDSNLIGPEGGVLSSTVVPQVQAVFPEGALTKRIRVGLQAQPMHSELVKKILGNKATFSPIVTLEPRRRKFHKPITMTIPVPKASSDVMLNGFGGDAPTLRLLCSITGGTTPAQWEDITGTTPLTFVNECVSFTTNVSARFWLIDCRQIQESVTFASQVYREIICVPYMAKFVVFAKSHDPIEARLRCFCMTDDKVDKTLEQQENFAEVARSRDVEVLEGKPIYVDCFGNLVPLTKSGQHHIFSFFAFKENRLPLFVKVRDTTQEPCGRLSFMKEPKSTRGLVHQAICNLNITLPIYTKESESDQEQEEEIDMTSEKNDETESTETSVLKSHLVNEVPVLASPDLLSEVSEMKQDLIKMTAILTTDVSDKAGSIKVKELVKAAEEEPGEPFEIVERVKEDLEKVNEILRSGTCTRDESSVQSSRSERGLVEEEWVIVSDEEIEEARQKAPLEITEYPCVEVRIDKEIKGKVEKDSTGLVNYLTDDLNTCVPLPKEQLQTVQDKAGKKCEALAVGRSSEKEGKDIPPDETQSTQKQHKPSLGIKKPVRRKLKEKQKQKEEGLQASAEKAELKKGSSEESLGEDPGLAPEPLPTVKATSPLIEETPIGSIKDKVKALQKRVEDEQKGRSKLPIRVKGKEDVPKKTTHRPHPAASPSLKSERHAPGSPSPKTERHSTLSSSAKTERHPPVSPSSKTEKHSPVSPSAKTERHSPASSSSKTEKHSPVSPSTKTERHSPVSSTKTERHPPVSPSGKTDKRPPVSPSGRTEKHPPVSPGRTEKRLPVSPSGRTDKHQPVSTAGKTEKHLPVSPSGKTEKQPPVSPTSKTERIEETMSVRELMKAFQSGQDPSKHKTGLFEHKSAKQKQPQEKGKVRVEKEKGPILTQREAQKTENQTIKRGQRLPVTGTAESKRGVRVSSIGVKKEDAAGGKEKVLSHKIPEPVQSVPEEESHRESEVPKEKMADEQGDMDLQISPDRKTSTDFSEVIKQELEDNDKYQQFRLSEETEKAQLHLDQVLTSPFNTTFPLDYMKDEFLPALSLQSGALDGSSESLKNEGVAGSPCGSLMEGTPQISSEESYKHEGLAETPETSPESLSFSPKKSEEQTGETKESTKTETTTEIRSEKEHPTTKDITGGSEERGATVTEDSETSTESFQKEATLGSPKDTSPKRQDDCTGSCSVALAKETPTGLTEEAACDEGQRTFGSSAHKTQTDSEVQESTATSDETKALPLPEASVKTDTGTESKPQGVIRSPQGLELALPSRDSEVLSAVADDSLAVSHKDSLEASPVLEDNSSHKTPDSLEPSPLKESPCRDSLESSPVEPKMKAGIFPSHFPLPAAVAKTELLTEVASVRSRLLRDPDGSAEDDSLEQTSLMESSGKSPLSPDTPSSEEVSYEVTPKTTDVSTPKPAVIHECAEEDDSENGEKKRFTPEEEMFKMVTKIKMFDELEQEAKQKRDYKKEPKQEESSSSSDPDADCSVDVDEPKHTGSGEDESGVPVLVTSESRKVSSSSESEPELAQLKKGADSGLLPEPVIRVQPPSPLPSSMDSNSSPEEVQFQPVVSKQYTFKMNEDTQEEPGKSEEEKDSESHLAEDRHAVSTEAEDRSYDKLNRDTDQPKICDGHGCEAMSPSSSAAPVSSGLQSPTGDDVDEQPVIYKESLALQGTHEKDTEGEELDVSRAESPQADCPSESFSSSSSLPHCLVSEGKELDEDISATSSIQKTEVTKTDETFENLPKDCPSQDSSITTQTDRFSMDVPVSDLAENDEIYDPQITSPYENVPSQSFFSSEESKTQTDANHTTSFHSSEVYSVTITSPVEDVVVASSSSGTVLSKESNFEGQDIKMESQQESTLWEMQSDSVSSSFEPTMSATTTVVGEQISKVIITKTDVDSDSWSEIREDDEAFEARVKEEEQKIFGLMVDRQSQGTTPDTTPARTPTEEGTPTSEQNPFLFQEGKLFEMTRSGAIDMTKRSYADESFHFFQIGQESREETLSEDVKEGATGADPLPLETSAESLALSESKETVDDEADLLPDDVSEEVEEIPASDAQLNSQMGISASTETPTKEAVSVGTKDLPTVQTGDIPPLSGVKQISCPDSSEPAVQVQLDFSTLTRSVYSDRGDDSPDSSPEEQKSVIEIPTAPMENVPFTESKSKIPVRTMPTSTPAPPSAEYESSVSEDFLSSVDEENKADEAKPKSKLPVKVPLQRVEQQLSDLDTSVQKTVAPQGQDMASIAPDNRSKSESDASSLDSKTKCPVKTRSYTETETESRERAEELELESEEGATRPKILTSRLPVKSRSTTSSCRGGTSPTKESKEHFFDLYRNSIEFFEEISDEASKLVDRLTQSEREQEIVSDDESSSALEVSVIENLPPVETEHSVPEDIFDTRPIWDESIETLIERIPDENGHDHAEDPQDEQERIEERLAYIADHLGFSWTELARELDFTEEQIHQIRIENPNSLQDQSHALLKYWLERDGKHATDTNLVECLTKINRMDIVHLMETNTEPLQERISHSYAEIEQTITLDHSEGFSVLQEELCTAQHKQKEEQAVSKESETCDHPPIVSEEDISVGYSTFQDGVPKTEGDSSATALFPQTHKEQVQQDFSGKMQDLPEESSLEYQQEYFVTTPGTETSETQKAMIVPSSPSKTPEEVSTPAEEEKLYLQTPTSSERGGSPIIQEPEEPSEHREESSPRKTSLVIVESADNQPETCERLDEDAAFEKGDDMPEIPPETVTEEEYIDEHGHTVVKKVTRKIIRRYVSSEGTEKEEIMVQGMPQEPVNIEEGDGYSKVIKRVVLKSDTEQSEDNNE
In the case of MLSRKGIIPEEYVLTRLAEDPAKPRYRARQRRARFVSKKGNCNVAHKNIREQGRFLQDVFTTLVDLKWPHTLLIFTMSFLCSWLLFAMAWWLIAFAHGDLAPSEGTAEPCVTSIHSFSSAFLFSIEVQVTIGFGGRMVTEECPLAILILIVQNIVGLMINAIMLGCIFMKTAQAHRRAETLIFSKHAVIALRHGRLCFMLRVGDLRKSMIISATIHMQVVRKTTSPEGEVVPLHQVDIPMENGVGGNSIFLVAPLIIYHVIDANSPLYDLAPSDLHHHQDLEIIVILEGVVETTGITTQARTSYLADEILWGQRFVPIVAEEKGRYSVDYSKFGNTVKVPTPLCTARQLDEDHSLLEALTLASARGPLRKRSVPMAKAKPKFSISPDSLS [D323K], the “effect of a mutation on the interaction” value is “disrupting interaction”.
MLSRKGIIPEEYVLTRLAEDPAKPRYRARQRRARFVSKKGNCNVAHKNIREQGRFLQDVFTTLVDLKWPHTLLIFTMSFLCSWLLFAMAWWLIAFAHGDLAPSEGTAEPCVTSIHSFSSAFLFSIEVQVTIGFGGRMVTEECPLAILILIVQNIVGLMINAIMLGCIFMKTAQAHRRAETLIFSKHAVIALRHGRLCFMLRVGDLRKSMIISATIHMQVVRKTTSPEGEVVPLHQVDIPMENGVGGNSIFLVAPLIIYHVIDANSPLYDLAPSDLHHHQDLEIIVILEGVVETTGITTQARTSYLADEILWGQRFVPIVAEKDGRYSVDYSKFGNTVKVPTPLCTARQLDEDHSLLEALTLASARGPLRKRSVPMAKAKPKFSISPDSLS [E322K]: the “effect of a mutation on the interaction” value is reported as “disrupting interaction”.
For MLSRKGIIPEEYVLTRLAEDPAKPRYRARQRRARFVSKKGNCNVAHKNIREQGRFLQDVFTTLVDLKWPHTLLIFTMSFLCSWLLFAMAWWLIAFAHGDLAPSEGTAEPCVTSIHSFSSAFLFSIEVQVTIGFGGRMVTEECPLAILILIVQNIVGLMINAIMLGCIFMKTAQAHRRAETLIFSKHAVIALRHGRLCFMLRVGDLRKSMIISATIHMQVVRKTTSPEGEVVPLHQVDIPMENGVGGNSIFLVAPLIIYHVIDANSPLYDLAPSDLHHHQDLEIIVILEGVVETTGITTQARTSYLADEILWGQRFVPIVAKEDGRYSVDYSKFGNTVKVPTPLCTARQLDEDHSLLEALTLASARGPLRKRSVPMAKAKPKFSISPDSLS [E321K], the “effect of a mutation on the interaction” value is on record as “disrupting interaction”.

Another assay covers variants of B1. The settings on record: with ank2_human ANK2, Q01484. The source holds these as a separate data set.
Take MLSRKGIIPEEYVLTRLAEDPAKPRYRARQRRARFVSKKGNCNVAHKNIREQGRFLQDVFTTLVDLKWPHTLLIFTMSFLCSWLLFAMAWWLIAFAHGDLAPSEGTAEPCVTSIHSFSSAFLFSIEVQVTIGFGGRMVTEECPLAILILIVQNIVGLMINAIMLGCIFMKTAQAHRRAETLIFSKHAVIALRHGRLCFMLRVGDLRKSMIISATIHMQVVRKTTSPEGEVVPLHQVDIPMENGVGGNSIFLVAPLIIYHVIDANSPLYDLAPSDLHHHQDLEIIVILEGVVETTGITTQARTSYLADEILWGQRFVPIVAEKDGRYSVDYSKFGNTVKVPTPLCTARQLDEDHSLLEALTLASARGPLRKRSVPMAKAKPKFSISPDSLS [E322K]: the “effect of a mutation on the interaction” value is listed as “decreasing interaction”.
